US20190256608A1 (GlaxoSmithKline, published 2019)

Target: cynomolgus PD-1 (cynomolgus)
Assay: kinetic analysis (bio-light interferometry)

B1: Pembrolizumab (antibody, human IgG4 S228P, kappa, V domains shown)
VH: QVQLVQSGVEVKKPGASVKVSCKASGYTFTNYYMYWVRQAPGQGLEWMGGINPSNGGTNFNEKFKNRVTLTTDSSTTTAYMELKSLQFDDTAVYYCARRDYRFDMGFDYWGQGTTVTVSS
VL: EIVLTQSPATLSLSPGERATLSCRASKGVSTSGYSYLHWYQQKPGQAPRLLIYLASYLESGVPARFSGSGSGTDFTLTISSLEPEDFAVYYCQHSRDLPLTFGGGTKVEIKR
notes: also called MK3475
Kd: 0.118 nM
